Reference: patent publication US20130115678
Positions count from the first letter of the chain named.

Key:
Assay in all cases: cleavage_in_vitro
[1] = tested on: T1, AvrII (Anabaena variabilis); conditions: NEB4, 37 C, Mg2+; FI NEB1-3: 64, 8, 32
T1 sequence: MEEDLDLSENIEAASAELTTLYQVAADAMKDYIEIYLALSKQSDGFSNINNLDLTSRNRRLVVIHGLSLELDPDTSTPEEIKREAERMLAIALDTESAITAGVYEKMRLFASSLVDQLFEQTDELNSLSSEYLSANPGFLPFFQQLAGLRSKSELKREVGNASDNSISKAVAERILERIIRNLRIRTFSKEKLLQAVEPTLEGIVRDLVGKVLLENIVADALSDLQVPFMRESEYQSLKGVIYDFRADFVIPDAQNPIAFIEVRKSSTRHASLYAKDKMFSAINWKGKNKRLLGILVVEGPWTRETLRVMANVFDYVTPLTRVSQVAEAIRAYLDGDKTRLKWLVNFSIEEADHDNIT

[2] = tested on: T2, AvrII-HF Y104F (Anabaena variabilis); conditions: NEB4, 37 C, Mg2+; FI NEB1-3: 500, >=500, >=16
T2 sequence: T1 sequence with Y104F

[3] = biological target: T3, SalI (Streptomyces albus G) (UniProt Q53608); conditions: NEB4, 37 C, Mg2+; FI NEB1-3: 8, 1, 32
T3 sequence: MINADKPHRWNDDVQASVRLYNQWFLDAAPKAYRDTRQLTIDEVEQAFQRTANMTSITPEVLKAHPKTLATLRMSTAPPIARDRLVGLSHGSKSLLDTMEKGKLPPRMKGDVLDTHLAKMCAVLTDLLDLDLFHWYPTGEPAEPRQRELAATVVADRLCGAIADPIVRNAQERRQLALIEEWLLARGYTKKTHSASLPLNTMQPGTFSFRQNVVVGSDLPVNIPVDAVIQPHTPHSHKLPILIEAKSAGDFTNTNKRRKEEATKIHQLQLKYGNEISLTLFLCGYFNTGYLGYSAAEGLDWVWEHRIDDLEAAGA

[4] = biological target: T4, SalI-HF R107A (Streptomyces albus G) (UniProt Q53608); conditions: NEB4, 37 C, Mg2+; FI NEB1-3: >=8000, >=64000, >=4000
T4 sequence: T3 sequence with R107A

[5] = tested on: T5, BspQI-HF K279P/R388F (Bacillus sphaericus); conditions: NEB4, 50 C, Mg2+; FI NEB1-3: >=1000, >=1000, >=64
T5 sequence: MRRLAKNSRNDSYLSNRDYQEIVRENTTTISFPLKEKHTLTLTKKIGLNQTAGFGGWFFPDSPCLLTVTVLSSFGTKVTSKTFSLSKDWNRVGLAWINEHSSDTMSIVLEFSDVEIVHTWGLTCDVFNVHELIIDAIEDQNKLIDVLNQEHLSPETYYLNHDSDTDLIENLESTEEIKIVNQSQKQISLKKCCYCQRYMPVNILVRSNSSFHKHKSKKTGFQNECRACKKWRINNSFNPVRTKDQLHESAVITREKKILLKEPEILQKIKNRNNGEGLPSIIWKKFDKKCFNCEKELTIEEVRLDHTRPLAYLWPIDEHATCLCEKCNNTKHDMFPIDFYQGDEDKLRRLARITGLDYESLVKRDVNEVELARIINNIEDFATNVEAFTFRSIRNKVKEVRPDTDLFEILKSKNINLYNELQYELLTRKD

PvuII (Proteus vulgaris) = biological target: T6, PvuII (Proteus vulgaris) (UniProt P23657); conditions: NEB4, 37 C, Mg2+; FI NEB1-3: 250, 16, 8
T6 sequence: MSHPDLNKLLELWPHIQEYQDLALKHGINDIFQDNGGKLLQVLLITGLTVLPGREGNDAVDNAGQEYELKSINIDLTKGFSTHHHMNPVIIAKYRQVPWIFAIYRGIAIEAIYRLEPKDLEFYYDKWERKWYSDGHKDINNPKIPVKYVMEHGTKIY

[6] = biological target: T7, PvuII-HF T46G (Proteus vulgaris) (UniProt P23657); conditions: NEB4, 37 C, Mg2+; FI NEB1-3: >=250, >=2000, >=250
T7 sequence: T6 sequence with T46G

Q: T7 DNA was tested. Which activity (fidelity index) [1] did it give?
A: The activity (fidelity index) was 32.

Q: And the activity (fidelity index) [2]?
A: Its activity (fidelity index) is > 1000.

Q: Which results are given for HindIII-digested lambda DNA?
A: activity (fidelity index) [3]: 1; activity (fidelity index) [4]: > 32000

Q: For pUC19, which activity (fidelity index) [5] is on record?
A: Its activity (fidelity index) is > 4000.

Q: What does the source list for pBR322?
A: activity (fidelity index) (PvuII (Proteus vulgaris)): 0.25; activity (fidelity index) [6]: 500
